Molecular target: HLA-A*02:01 (Homo sapiens, UniProt P04439, D140Y/D185E/D98H/E176V/E277Q/G131W/G231S/I119V/I121R/I166T/I218V/L300P/L318F/N151K/N90K/P208A/P217A/Q86G/Q94H/R138H/R169H/T345S)
Assay: MHC binding assay (UV-ligand exchange, beta2m ELISA)
Details: binding to HLA-A*02:01, UV-ligand exchange
Excerpt: Candidate peptides for T cell based therapies according to the present invention were further tested for their MHC binding capacity (affinity). The individual peptide-MHC complexes were produced by UV-ligand exchange, where a UV-sensitive peptide is cleaved upon UV-irradiation, and exchanged with the peptide of interest as analyzed. Only peptide candidates that can effectively bind and stabilize the peptide-receptive MHC molecules prevent dissociation of the MHC complexes. To determine the yield of the exchange reaction, an ELISA was performed based on the detection of the light chain (β2m) of stabilized MHC complexes. The assay was performed as generally described in Rodenko et al. (Rodenko et al., 2006).
96 well MAXISorp plates (NUNC) were coated over night with 2 ug/ml streptavidin in PBS at room temperature, washed 4× and blocked for 1 h at 37° C. in 2% BSA containing blocking buffer. Refolded HLA-A*02:01/MLA-001 monomers served as standards, covering the range of 15-500 ng/ml. Peptide-MHC monomers of the UV-exchange reaction were diluted 100 fold in blocking buffer. Samples were incubated for 1 h at 37° C., washed four times, incubated with 2 ug/ml HRP conjugated anti-β2m for 1 h at 37° C., washed again and detected with TMB solution that is stopped with […]. Absorption was measured at 450 nm. Candidate peptides that show a high exchange yield (preferably higher than 50%, most preferred higher than 75%) are generally preferred for a generation and production of antibodies or fragments thereof, and/or T cell receptors or fragments thereof, as they show sufficient avidity to the MHC molecules and prevent dissociation of the MHC complexes.

| Substance | Peptide exchange (MHC class I binding score, peptide exchange yield) |
| --- | --- |
| 151 (ILVKQSPML; listed as Homo sapiens) [compound 151] | “+++” (≥50 = +++) |
| 105 (VLTPVILQV; listed as Homo sapiens) [compound 105] | “+++” (≥50 = +++) |
| 284 (KLQEQIHRV; listed as Homo sapiens) [compound 284] | “+++” (≥50 = +++) |
| 49 (TILGDPQILL; listed as Homo sapiens) [compound 49] | “++++” (≥75% = ++++) |
| 15 (IIIEDLLEA; listed as Homo sapiens) [compound 15] | “++++” (≥75% = ++++) |
| 229 (ILSPWGAEV; listed as Homo sapiens) [compound 229] | “++++” (≥75% = ++++) |
| 186 (FLDVSRDFV; listed as Homo sapiens) [compound 186] | “+++” (≥50 = +++) |
| 137 (FIQQERFFL; listed as Homo sapiens) [compound 137] | “+++” (≥50 = +++) |
| 127 (HLMEENMIVYV; listed as Homo sapiens) [compound 127] | “+++” (≥50 = +++) |
| 274 (KLLNLISKL; listed as Homo sapiens) [compound 274] | “++++” (≥75% = ++++) |
| 159 (LLLSDSGFYL; listed as Homo sapiens) [compound 159] | “+++” (≥50 = +++) |
| 271 (YLLDQPVLEQRL; listed as Homo sapiens) [compound 271] | “++++” (≥75% = ++++) |
| 107 (VQAVSIPEV; listed as Homo sapiens) [compound 107] | “+++” (≥50 = +++) |
| 45 (FILDDSALYL; listed as Homo sapiens) [compound 45] | “+++” (≥50 = +++) |
| 77 (ALLDVSNNYGI; listed as Homo sapiens) [compound 77] | “++++” (≥75% = ++++) |
| 91 (HLSSTTAQV; listed as Homo sapiens) [compound 91] | “++” (≥20% = ++) |
| 81 (FIFSYITAV; listed as Homo sapiens) [compound 81] | “++” (≥20% = ++) |
| 221 (FLAPDNSLLLA; listed as Homo sapiens) [compound 221] | “++++” (≥75% = ++++) |
| 235 (SLDVYELFL; listed as Homo sapiens) [compound 235] | “+++” (≥50 = +++) |

| Substance | Peptide exchange (MHC class I binding score, peptide exchange yield) |
| --- | --- |
| 121 (YLTGYNFTL; listed as Homo sapiens) [compound 121] | “+++” (≥50 = +++) |
| 109 (YLFQFSAAL; listed as Homo sapiens) [compound 109] | “+++” (≥50 = +++) |
| 270 (VVVDSDSLAFV; listed as Homo sapiens) [compound 270] | “++++” (≥75% = ++++) |
| 88 (GLFDNRSGLPEA; listed as Homo sapiens) [compound 88] | “+++” (≥50 = +++) |
| 305 (AMLAQQMQL; listed as Homo sapiens) [compound 305] | “+++” (≥50 = +++) |
| 94 (LLAGQATTAYF; listed as Homo sapiens) [compound 94] | “+++” (≥50 = +++) |
| 98 (MLQDGIARL; listed as Homo sapiens) [compound 98] | “+++” (≥50 = +++) |
| 86 (GLATIRAYL; listed as Homo sapiens) [compound 86] | “+++” (≥50 = +++) |
| 201 (YLNISQVNV; listed as Homo sapiens) [compound 201] | “+++” (≥50 = +++) |
| 199 (SLNSTTWKV; listed as Homo sapiens) [compound 199] | “+++” (≥50 = +++) |
| 215 (QLFEEEIEL; listed as Homo sapiens) [compound 215] | “++” (≥20% = ++) |
| 292 (KLINSQISL; listed as Homo sapiens) [compound 292] | “+++” (≥50 = +++) |
| 96 (LLLNENESLFL; listed as Homo sapiens) [compound 96] | “+++” (≥50 = +++) |
| 288 (RLAPEIVSA; listed as Homo sapiens) [compound 288] | “+++” (≥50 = +++) |
| 276 (NMISYVVHL; listed as Homo sapiens) [compound 276] | “++” (≥20% = ++) |
| 228 (IIAEYLSYV; listed as Homo sapiens) [compound 228] | “++” (≥20% = ++) |
| 278 (FLLFINHRL; listed as Homo sapiens) [compound 278] | “+++” (≥50 = +++) |
| 291 (KIIDTAGLSEA; listed as Homo sapiens) [compound 291] | “+++” (≥50 = +++) |
| 83 (FLMDDNMSNTL; listed as Homo sapiens) [compound 83] | “+++” (≥50 = +++) |

| Substance | Peptide exchange (MHC class I binding score, peptide exchange yield) |
| --- | --- |
| 287 (ILMGHSLYM; listed as Homo sapiens) [compound 287] | “++++” (≥75% = ++++) |
| 6 (TLITLPLLFL; listed as Homo sapiens) [compound 6] | “+++” (≥50 = +++) |
| 70 (VLIEILQKA; listed as Homo sapiens) [compound 70] | “++++” (≥75% = ++++) |
| 182 (LLPPPPPVA; listed as Homo sapiens) [compound 182] | “++++” (≥75% = ++++) |
| 277 (FLIDLNSTHGTFL; listed as Homo sapiens) [compound 277] | “+++” (≥50 = +++) |
| 272 (KLDHTLSQI; listed as Homo sapiens) [compound 272] | “++++” (≥75% = ++++) |
| 119 (ELCDIILRV; listed as Homo sapiens) [compound 119] | “+++” (≥50 = +++) |
| 275 (KLMDLEDCAL; listed as Homo sapiens) [compound 275] | “++++” (≥75% = ++++) |
| 161 (NLMLELETV; listed as Homo sapiens) [compound 161] | “+++” (≥50 = +++) |
| 231 (IVMGAIPSV; listed as Homo sapiens) [compound 231] | “+++” (≥50 = +++) |
| 192 (GMAAEVPKV; listed as Homo sapiens) [compound 192] | “++” (≥20% = ++) |
| 246 (KLPVPLESV; listed as Homo sapiens) [compound 246] | “+++” (≥50 = +++) |
| 238 (YQYGAVVTL; listed as Homo sapiens) [compound 238] | “+++” (≥50 = +++) |
| 136 (FIFGIVHLL; listed as Homo sapiens) [compound 136] | “+++” (≥50 = +++) |
| 193 (SLADSMPSL; listed as Homo sapiens) [compound 193] | “++” (≥20% = ++) |
| 102 (SLFAAISGMIL; listed as Homo sapiens) [compound 102] | “+++” (≥50 = +++) |
| 80 (YLFDEIDQA; listed as Homo sapiens) [compound 80] | “+++” (≥50 = +++) |
| 63 (ALIEEAYGL; listed as Homo sapiens) [compound 63] | “+++” (≥50 = +++) |

From patent US10702592B2, “Peptides and combination of peptides for use in immunotherapy against NHL and other cancers” (Immatics Biotechnologies GmbH, priority 2016, dated 2020)
